Measurements taken from US20180155451A1 (published 2018).

T1: FcγRIIa H (human, UniProt P12318 34-217)
T1 construct: extracellular domain; also called FcgRIIa H type; 2aH; not shown: His tag at the C terminus
T1 sequence (looked up): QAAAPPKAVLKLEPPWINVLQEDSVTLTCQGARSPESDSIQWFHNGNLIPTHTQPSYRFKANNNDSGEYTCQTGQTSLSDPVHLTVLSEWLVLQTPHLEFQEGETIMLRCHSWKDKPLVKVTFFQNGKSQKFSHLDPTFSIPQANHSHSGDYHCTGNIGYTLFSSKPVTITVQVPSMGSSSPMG


Biological target: T1, FcγRIIa H
Assay: SPR Biacore, relative binding

Binder | Ho/Con_2aH
GpH7-B3 variant I332_02A/GpL16-k0 (antibody, human IgG1, kappa, also called Ho Ab I332_02A) heavy: not shown light: DIVMTQSPLSLPVTPGEPASISCQASESLVHSNRNTYLHWYLQKPGQSPQLLIYKVSNRFSGVPDRFSGSGSGTDFTLKISRVEAEDVGVYYCSQNTHVPPTFGQGTKVEIERTVAAPSVFIFPPSDEQLKSGTASVVCLLNNFYPREAKVQWKVDNALQSGNSQESVTEQDSKDSTYSLSSTLTLSKADYEKHKVYACEVTHQGLSSPVTKSFNRGEC | 119 % of GpH7-B3/GpL16-k0 (=100)
GpH7-B3 variant I332_09D/GpL16-k0 (antibody, human IgG1, kappa, also called Ho Ab I332_09D) heavy: not shown light: DIVMTQSPLSLPVTPGEPASISCQASESLVHSNRNTYLHWYLQKPGQSPQLLIYKVSNRFSGVPDRFSGSGSGTDFTLKISRVEAEDVGVYYCSQNTHVPPTFGQGTKVEIERTVAAPSVFIFPPSDEQLKSGTASVVCLLNNFYPREAKVQWKVDNALQSGNSQESVTEQDSKDSTYSLSSTLTLSKADYEKHKVYACEVTHQGLSSPVTKSFNRGEC | 130 % of GpH7-B3/GpL16-k0 (=100)
GpH7-B3 variant H268_13S/GpL16-k0 (antibody, human IgG1, kappa, also called Ho Ab H268_13S) heavy: not shown light: DIVMTQSPLSLPVTPGEPASISCQASESLVHSNRNTYLHWYLQKPGQSPQLLIYKVSNRFSGVPDRFSGSGSGTDFTLKISRVEAEDVGVYYCSQNTHVPPTFGQGTKVEIERTVAAPSVFIFPPSDEQLKSGTASVVCLLNNFYPREAKVQWKVDNALQSGNSQESVTEQDSKDSTYSLSSTLTLSKADYEKHKVYACEVTHQGLSSPVTKSFNRGEC | 114 % of GpH7-B3/GpL16-k0 (=100)
GpH7-B3 variant I332_18N/GpL16-k0 (antibody, human IgG1, kappa, also called Ho Ab I332_18N) heavy: not shown light: DIVMTQSPLSLPVTPGEPASISCQASESLVHSNRNTYLHWYLQKPGQSPQLLIYKVSNRFSGVPDRFSGSGSGTDFTLKISRVEAEDVGVYYCSQNTHVPPTFGQGTKVEIERTVAAPSVFIFPPSDEQLKSGTASVVCLLNNFYPREAKVQWKVDNALQSGNSQESVTEQDSKDSTYSLSSTLTLSKADYEKHKVYACEVTHQGLSSPVTKSFNRGEC | 118 % of GpH7-B3/GpL16-k0 (=100)
GpH7-B3 variant G236_10E/GpL16-k0 (antibody, human IgG1, kappa, also called Ho Ab G236_10E) heavy: not shown light: DIVMTQSPLSLPVTPGEPASISCQASESLVHSNRNTYLHWYLQKPGQSPQLLIYKVSNRFSGVPDRFSGSGSGTDFTLKISRVEAEDVGVYYCSQNTHVPPTFGQGTKVEIERTVAAPSVFIFPPSDEQLKSGTASVVCLLNNFYPREAKVQWKVDNALQSGNSQESVTEQDSKDSTYSLSSTLTLSKADYEKHKVYACEVTHQGLSSPVTKSFNRGEC | 122 % of GpH7-B3/GpL16-k0 (=100)
GpH7-B3 variant G236_03V/GpL16-k0 (antibody, human IgG1, kappa, also called Ho Ab G236_03V) heavy: not shown light: DIVMTQSPLSLPVTPGEPASISCQASESLVHSNRNTYLHWYLQKPGQSPQLLIYKVSNRFSGVPDRFSGSGSGTDFTLKISRVEAEDVGVYYCSQNTHVPPTFGQGTKVEIERTVAAPSVFIFPPSDEQLKSGTASVVCLLNNFYPREAKVQWKVDNALQSGNSQESVTEQDSKDSTYSLSSTLTLSKADYEKHKVYACEVTHQGLSSPVTKSFNRGEC | 111 % of GpH7-B3/GpL16-k0 (=100)
GpH7-B3 variant I332_14T/GpL16-k0 (antibody, human IgG1, kappa, also called Ho Ab I332_14T) heavy: not shown light: DIVMTQSPLSLPVTPGEPASISCQASESLVHSNRNTYLHWYLQKPGQSPQLLIYKVSNRFSGVPDRFSGSGSGTDFTLKISRVEAEDVGVYYCSQNTHVPPTFGQGTKVEIERTVAAPSVFIFPPSDEQLKSGTASVVCLLNNFYPREAKVQWKVDNALQSGNSQESVTEQDSKDSTYSLSSTLTLSKADYEKHKVYACEVTHQGLSSPVTKSFNRGEC | 125 % of GpH7-B3/GpL16-k0 (=100)

Results, then the binder that gave them:

Ho/Con_2aH | Binder
101 % of GpH7-B3/GpL16-k0 (=100) | GpH7-B3 variant G236_07I/GpL16-k0 (antibody, human IgG1, kappa, also called Ho Ab G236_07I) heavy: not shown light: DIVMTQSPLSLPVTPGEPASISCQASESLVHSNRNTYLHWYLQKPGQSPQLLIYKVSNRFSGVPDRFSGSGSGTDFTLKISRVEAEDVGVYYCSQNTHVPPTFGQGTKVEIERTVAAPSVFIFPPSDEQLKSGTASVVCLLNNFYPREAKVQWKVDNALQSGNSQESVTEQDSKDSTYSLSSTLTLSKADYEKHKVYACEVTHQGLSSPVTKSFNRGEC
101 % of GpH7-B3/GpL16-k0 (=100) | GpH7-B3 variant I336_08L/GpL16-k0 (antibody, human IgG1, kappa, also called Ho Ab I336_08L) heavy: not shown light: DIVMTQSPLSLPVTPGEPASISCQASESLVHSNRNTYLHWYLQKPGQSPQLLIYKVSNRFSGVPDRFSGSGSGTDFTLKISRVEAEDVGVYYCSQNTHVPPTFGQGTKVEIERTVAAPSVFIFPPSDEQLKSGTASVVCLLNNFYPREAKVQWKVDNALQSGNSQESVTEQDSKDSTYSLSSTLTLSKADYEKHKVYACEVTHQGLSSPVTKSFNRGEC
114 % of GpH7-B3/GpL16-k0 (=100) | GpH7-B3 variant I332_06M/GpL16-k0 (antibody, human IgG1, kappa, also called Ho Ab I332_06M) heavy: not shown light: DIVMTQSPLSLPVTPGEPASISCQASESLVHSNRNTYLHWYLQKPGQSPQLLIYKVSNRFSGVPDRFSGSGSGTDFTLKISRVEAEDVGVYYCSQNTHVPPTFGQGTKVEIERTVAAPSVFIFPPSDEQLKSGTASVVCLLNNFYPREAKVQWKVDNALQSGNSQESVTEQDSKDSTYSLSSTLTLSKADYEKHKVYACEVTHQGLSSPVTKSFNRGEC
121 % of GpH7-B3/GpL16-k0 (=100) | GpH7-B3 variant I332_13S/GpL16-k0 (antibody, human IgG1, kappa, also called Ho Ab I332_13S) heavy: not shown light: DIVMTQSPLSLPVTPGEPASISCQASESLVHSNRNTYLHWYLQKPGQSPQLLIYKVSNRFSGVPDRFSGSGSGTDFTLKISRVEAEDVGVYYCSQNTHVPPTFGQGTKVEIERTVAAPSVFIFPPSDEQLKSGTASVVCLLNNFYPREAKVQWKVDNALQSGNSQESVTEQDSKDSTYSLSSTLTLSKADYEKHKVYACEVTHQGLSSPVTKSFNRGEC
